Measurements taken from patent US20240390497A1 (Stanford University, published 2024).

T1: human CD93/Fc fusion protein (human, UniProt Q9NPY3 22-580, limits assumed)
T1 construct: It was biotinylated or DyLight 650-conjugated for staining; also called CD93-Fc chimera protein; CD93-Fc biotinylated protein; not shown: Fc part
T1 sequence (looked up): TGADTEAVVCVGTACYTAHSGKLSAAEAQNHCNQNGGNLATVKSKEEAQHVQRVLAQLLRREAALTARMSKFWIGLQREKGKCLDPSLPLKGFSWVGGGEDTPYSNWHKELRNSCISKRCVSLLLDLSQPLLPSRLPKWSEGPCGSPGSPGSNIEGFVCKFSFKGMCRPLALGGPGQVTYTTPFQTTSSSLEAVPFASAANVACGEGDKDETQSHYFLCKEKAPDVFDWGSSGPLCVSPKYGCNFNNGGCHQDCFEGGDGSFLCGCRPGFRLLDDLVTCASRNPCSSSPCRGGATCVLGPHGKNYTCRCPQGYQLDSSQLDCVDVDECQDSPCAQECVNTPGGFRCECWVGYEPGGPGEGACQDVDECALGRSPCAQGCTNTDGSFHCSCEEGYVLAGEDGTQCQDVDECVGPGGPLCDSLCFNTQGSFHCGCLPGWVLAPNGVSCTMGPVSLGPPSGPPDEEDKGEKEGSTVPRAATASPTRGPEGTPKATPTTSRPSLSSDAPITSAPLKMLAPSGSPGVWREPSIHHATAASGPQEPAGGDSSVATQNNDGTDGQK


Biological target: T1, human CD93/Fc fusion protein
Experiment: ELISA on coated human CD93/Fc, HRP anti-human kappa secondary, OD490
Description: FIGS. 2A-2O are sets of graphs illustrating that CD93-CAR T cells exert anti-leukemic effects against AML in vitro. FIG. 2A is a bar chart showing that humanized (“HuF11-G1” and “HuF11-G1 TM”) and chimeric F11 (“ChF11-G1”) monoclonal antibodies bind human CD93 with similar affinity. Human CD93/Fc fusion protein was coated in a 96-well plate and different concentrations of the antibodies as indicated were added. HRP-conjugated anti-human Kappa antibody was used as a secondary antibody. CD93 binding activity was measured by reading signals at OD490 […]. FIG. 2B is a cartoon showing the structure of CD93-28z and CD93-BBz CARs. […] Cells were fed with new media every 2-3 days, analyzed for transduction efficiency and phenotype on day 10-11, and processed for downstream experiments. FIG. 2D is a bar graph showing comparing transduction efficiency for each of aCAR molecule and control (“Mock”), measured by flow cytometry on day 10 after T cell activation. […] FIG. 2F is a set of graphs comparing expression levels of markers of T cell activation/exhaustion, including LAG-3, PD-1, TIM-3, and CD39, measured by flow cytometry on day 10 after T cell activation, prior to downstream experiments. […] FIG. 2G is a graph showing CD93 expression on AML cell lines, measured by flow cytometry after staining with biotinylated F11 antibody followed by streptavidin-APC. […]

Row | Binder | EC50 (read off the curve) [µg/mL]
1 | humanized F11 monoclonal antibody (HuF11-G1) (antibody, V domains shown, also called humanized F11 antibody) VH: QVQLVQSGAEVKKPGASVKVSCKASGYTFTDYHMDWVKQAPGQGLEWIGDIDPYNGDTVFNQKFKGKATMTRDTSISTAYMELSRLRSDDTAVYYCTRGGDYWGQGTLVTVSS VL: DIVMTQTPLSLSVTPGQPASISCRSSQTLVHSNGNTYLHWYLQKPGQPPQLLIYKVSNRFSGVPDRFSGSGSGTDFTLKISRVEAEDVGVYFCSQSTHVPFTFGQGTKLEIK | ~0.03
2 | humanized F11 monoclonal antibody (HuF11-G1 TM) (antibody, V domains shown, also called humanized F11 antibody) VH: QVQLVQSGAEVKKPGASVKVSCKASGYTFTDYHMDWVKQAPGQGLEWIGDIDPYNGDTVFNQKFKGKATMTRDTSISTAYMELSRLRSDDTAVYYCTRGGDYWGQGTLVTVSS VL: DIVMTQTPLSLSVTPGQPASISCRSSQTLVHSNGNTYLHWYLQKPGQPPQLLIYKVSNRFSGVPDRFSGSGSGTDFTLKISRVEAEDVGVYFCSQSTHVPFTFGQGTKLEIK | ~0.03
